Source: article PMC12948190, “Microfluidic Electrochemical Biosensor for the Detection of Platelet Factor 4 Antibody‐Mediated Thrombotic Disorders” (Advanced Science, 2025)

Molecular target: the molecule itself
Assay: cross-linking + AUC; PF4 cross-linked with 1 mg/mL EDC (equal v:v) in 15 mM MES pH 8.0, 6 h, ambient temperature, stopped with 1 M Tris pH 7.4; oligomeric species analysed by SDS-PAGE and ultracentrifugation

B1: cross-linked platelet factor 4 (natural protein, human, UniProt P02776 32-101, looked up)
chain: EAEEDGDLQCLCVKTTSQVRPRHITSLEVIKAGPHCPTAQLIATLKNGRKICLDLQAPLYKKIIKKLLES
modifications: chemically cross-linked with 1-ethyl-3-(3-dimethylaminopropyl) carbodiimide (EDC); cross-linked residues not stated
notes: Platelet factor 4 (PF4, CXCL4), human, recombinant; The bought recombinant protein is probably the mature 70-residue chemokine (surmised); also called c-PF4; cross-linked PF4; source: bought: Protein Foundry LLC (recombinant PF4, Human CXCL4); cross-linked with EDC
stoichiometry N: 4
